B1: Programmed cell death protein 6 (Mus musculus), P12815 (parent)
chain: MAAYSYRPGPGGGPGPAAGAALPDQSFLWNVFQRVDKDRSGVISDNELQQALSNGTWTPFNPVTVRSIISMFDRENKAGVNFSEFTGVWKYITDWQNVFRTYDRDNSGMIDKNELKQALSGFGYRLSDQFHDILIRKFDRQGRGQIAFDDFIQGCIVLQRLTDIFRRYDTDQDGWIQVSYEQYLSMVFSIV
partner: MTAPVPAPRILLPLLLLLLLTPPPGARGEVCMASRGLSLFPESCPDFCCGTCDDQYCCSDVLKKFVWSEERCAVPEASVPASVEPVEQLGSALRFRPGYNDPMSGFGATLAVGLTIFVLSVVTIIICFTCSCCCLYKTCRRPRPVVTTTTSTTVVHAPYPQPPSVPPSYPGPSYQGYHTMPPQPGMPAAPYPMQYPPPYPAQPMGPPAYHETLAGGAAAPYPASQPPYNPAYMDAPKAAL

Variants of: B1
Conditions: with shsa5_human SHISA5, Q8N114

Variant | effect of a mutation on the interaction
E47D;E114D | disrupting interaction strength
